B1: 22168 (protein)
chain: MALPVTALLLPLALLLHAARPEVQLVESGGGLVQPGGSLRLSCEASGFASDDYIIGWFRQAPGKEREGVSCISSKYANTVYTDSVKGRFRLSRGTAKNTVYLQMSALKPEDTAVYYCAMDSRRVTCPEISTMHRNFDSWGQGTLVTVSSGTGGGGSGGGGSGGGGSEFDIQMTQSPSSLSASVGDRVTITCKASDHINNWLAWYQQKPGQAPKLLIYGATTLETGVPSRFSGSGSGTDYTLTISSLQPEDFATYYCQQSWNTPWTFGQGTKLEIKRLEIQNPDPAVYQLRDSKSSDKSVCLFTDFDSQTNVSQSKDSDVYITDKCVLDMRSMDFKSNSAVAWSNKSDFACANAFNNSIIPEDTFFPSSDVPCDVKLVEKSFETDTNLNFQNLSVIGFRILLLKVAGFNLLMTLRLWSSRAKRSGSGVKQTLNFDLLKLAGDVESNPGPTSATMDWIWRILFLVGAATGAHSGPQVQLQESGGGLAQAGGSLRLSCAASGRTFSMGWFRQAPGKEREFVAAITYSGGSPYYASSVRGRFTISRDNAKNTVYLQMNSLKPEDTAVYYCAANPTYGSDWNAENWGQGTQVTVSSGSGGGGSGGGGSGGGGSFEQVQLQQPGAELVKPGASVKMSCKASGYAFSSYWINWMKQKPGQGLEWIGQIYPGDGDTNYNGKFKGRATLTADTSSSTAYMQLSSLTSEDSAVYFCARSITTVVGCAMDYWGQGTSVTVSSTREDLKNVFPPEVAVFEPSKAEIAHTQKATLVCLATGFYPDHVELSWWVNGKEVHSGVCTDPQPLKEQPALNDSRYCLSSRLRVSATFWQNPRNHFRCQVQFYGLSENDEWTQDRAKPVTQIVSAEAWGRADCGITSASYHQGVLSATILYEILLGKATLYAVLVSALVLMAMVKRKDSRGRAKRSGSGATNFSLLKQAGDVEENPGPSRGHMTEYKPTVRLATRDDVPRAVRTLAAAFADYPATRHTVDPDRHIERVTELQELFLTRVGLDIGKVWVADDGAAVAVWTTPESVEAGAVFAEIGPRMAELSGSRLAAQQQMEGLLAPHRPKEPAWFLATVGVSPDHQGKGLGSAVVLPGVEAAERAGVPAFLETSAPRNLPFYERLGFTVTADVEVPEGPRTWCMTRKPGA
B2: 22167 (protein)
chain: MALPVTALLLPLALLLHAARPEVQLQESGGGLVQPGGSLRLSCAASGRTFSSLFMGWVRQAPGKGLELVSAISRYSLYTYYADSVKGRFTISRDNAKNTLYLQMNSLRPEDTAVYYCASKLEYTSNDYDSWGQGTLVTVSSGTGGGGSGGGGSGGGGSEFDIQMTQSPSSLSASVGDRVTITCKASDHINNWLAWYQQKPGQAPKLLIYGATTLETGVPSRFSGSGSGTDYTLTISSLQPEDFATYYCQQSWNTPWTFGQGTKLEIKRLEIQNPDPAVYQLRDSKSSDKSVCLFTDFDSQTNVSQSKDSDVYITDKCVLDMRSMDFKSNSAVAWSNKSDFACANAFNNSIIPEDTFFPSSDVPCDVKLVEKSFETDTNLNFQNLSVIGFRILLLKVAGFNLLMTLRLWSSRAKRSGSGVKQTLNFDLLKLAGDVESNPGPTSATMDWIWRILFLVGAATGAHSGPQVQLQESGGGLAQAGGSLRLSCAASGRTFSMGWFRQAPGKEREFVAAITYSGGSPYYASSVRGRFTISRDNAKNTVYLQMNSLKPEDTAVYYCAANPTYGSDWNAENWGQGTQVTVSSGSGGGGSGGGGSGGGGSFEQVQLQQPGAELVKPGASVKMSCKASGYAFSSYWINWMKQKPGQGLEWIGQIYPGDGDTNYNGKFKGRATLTADTSSSTAYMQLSSLTSEDSAVYFCARSITTVVGCAMDYWGQGTSVTVSSTREDLKNVFPPEVAVFEPSKAEIAHTQKATLVCLATGFYPDHVELSWWVNGKEVHSGVCTDPQPLKEQPALNDSRYCLSSRLRVSATFWQNPRNHFRCQVQFYGLSENDEWTQDRAKPVTQIVSAEAWGRADCGITSASYHQGVLSATILYEILLGKATLYAVLVSALVLMAMVKRKDSRGRAKRSGSGATNFSLLKQAGDVEENPGPSRGHMTEYKPTVRLATRDDVPRAVRTLAAAFADYPATRHTVDPDRHIERVTELQELFLTRVGLDIGKVWVADDGAAVAVWTTPESVEAGAVFAEIGPRMAELSGSRLAAQQQMEGLLAPHRPKEPAWFLATVGVSPDHQGKGLGSAVVLPGVEAAERAGVPAFLETSAPRNLPFYERLGFTVTADVEVPEGPRTWCMTRKPGA
B3: 22121 (protein)
chain: MALPVTALLLPLALLLHAARPDIQMTQSPSSLSASVGDRVTITCKASDHINNWLAWYQQKPGQAPKLLIYGATTLETGVPSRFSGSGSGTDYTLTISSLQPEDFATYYCQQSWNTPWTFGQGTKLEIKRLEGQPKANPTVTLFPPSSEELQANKATLVCLISDFYPGAVTVAWKADGSPVKAGVETTKPSKQSNNKYAASSYLSLTPEQWKSHRSYSCQVTHEGSTVEKTVAPTECSPIKTDVITMDPKDNCSKDANDTLLLQLTNTSAYYMYLLLLLKSVVYFAIITCCLLRRTAFCCNGEKSRAKRSGSGATNFSLLKQAGDVEENPGPTSATMDWIWRILFLVGAATGAHSGPQVQLQESGGGLAQAGGSLRLSCAASGRTFSMGWFRQAPGKEREFVAAITYSGGSPYYASSVRGRFTISRDNAKNTVYLQMNSLKPEDTAVYYCAANPTYGSDWNAENWGQGTQVTVSSGSGGGGSGGGGSGGGGSFEQVQLQQPGAELVKPGASVKMSCKASGYAFSSYWINWMKQKPGQGLEWIGQIYPGDGDTNYNGKFKGRATLTADTSSSTAYMQLSSLTSEDSAVYFCARSITTVVGCAMDYWGQGTSVTVSSTRASTKGPSVFPLAPSSKSTSGGTAALGCLVKDYFPEPVTVSWNSGALTSGVHTFPAVLQSSGLYSLSSVVTVPSSSLGTQTYICNVNHKPSNTKVDKRVEPKSCEVKTDSTDHVKPKETENTKQPSKSCHKPKAIVHTEKVNMMSLTVLGLRMLFAKTVAVNFLLTAKLFFLRAKRSGSGVKQTLNFDLLKLAGDVESNPGPSRGHMTEYKPTVRLATRDDVPRAVRTLAAAFADYPATRHTVDPDRHIERVTELQELFLTRVGLDIGKVWVADDGAAVAVWTTPESVEAGAVFAEIGPRMAELSGSRLAAQQQMEGLLAPHRPKEPAWFLATVGVSPDHQGKGLGSAVVLPGVEAAERAGVPAFLETSAPRNLPFYERLGFTVTADVEVPEGPRTWCMTRKPGA

What follows are molecules tested on RAJI cells (assay: JNG assay, co-culture with RAJI cells). Conditions: JNG cells expressing construct, co-culture with Raji.
Format: cell-based
Summary of the method: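 Jurkat-NFAT-GFP (JNG) cells stably expressing SAR constructs via lentiviral transduction and puromycin/blasticidin selection were cocultured with target cells at E:T ~1:2 for ~4–18 h. NFAT-driven GFP was measured by FACS versus parental JNG cells; scores +/- to 5+ denote ~5–50% GFP-positive cells.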

Molecule | NFAT-GFP ASSAY: Raji
B1 | 3+ (refer to approximately 5%, 10%, 20%, 30%, 40% and 50% GFP positive cells)
B2 | + (refer to approximately 5%, 10%, 20%, 30%, 40% and 50% GFP positive cells)
B3 | 5+ (refer to approximately 5%, 10%, 20%, 30%, 40% and 50% GFP positive cells)

Each molecule was assayed on RAJI-CD19-KO cells (assay: JNG assay, co-culture with RAJI-CD19-KO cells). Conditions: co-culture with Raji-CD19-KO.
Format: cell-based
Method: Cellular supernatant is collected and assayed for the induction of cytokines (e.g., IL2).
JNG (Jurkat cells expressing EGFP under an NFAT promoter) were infected with lentiviral vectors encoding different single chain and multi-chain SARs by spinfection in the presence of 8 µg/ml of Polybrene® (Sigma, Catalog no. H9268). The Jurkat-NFAT-GFP cells are engineered in such a way that the IL-2 promoter, which carries NFAT binding sites, is cloned upstream of the GFP gene. These cells have been used to study signaling via TCR and CAR. The different SARs were stably expressed in Jurkat NFAT-GFP cells by lentiviral mediated gene transfer, followed by selection with puromycin or blasticidin. No drug selection was used in case the construct lacked an antibiotic resistance gene. The SAR-expressing Jurkat-NFAT-GFP cells were cocultured with the target cells at E:T ratio of approximately 1:2 for approximately 4 hours to 18 hours. When the interaction between SIRs and their target antigen results in activation of the NFAT pathway, GFP expression is induced. […] GFP expression was monitored by FACS analysis. The Jurkat-NFAT-GFP (parental) cells were used as control. The structure of different constructs can be determined based on their names. […] The sequence of the other constructs in the table can be similarly determined from their names and by referring to the different Tables of this disclosure that provide the names and SEQ ID NO of the different modules. Alternatively, the composition and modular architecture of the different SAR constructs can be determined from their sequences by bioinformatics tools, including using nucleic acid and amino acids homology searches. A SAR is considered positive in the assay in case the SAR expressing Jurkat-NFAT-GFP cells show greater % GFP positive cells when cultured with the target cell line as compared to parental Jurkat-NFAT-GFP cells. […] In general, the number +/-, +, 2+, 3+, 4+, 5+ refer to approximately 5%, 10%, 20%, 30%, 40% and 50% GFP positive cells. The % of GFP induction in the above assay is dependent not only the relative strength of the SAR but also, among other factors, on the relative level of expression of the SAR in the JNG cells and the relative level of expression of the target antigen in the target cell line. To control for the difference in gene transduction efficiency of the different SAR constructs, the experiment was conducted with JNG cells transduced with SAR constructs co-expressing a drug resistance gene (e.g., puromycin or PAC) followed by drug selection to generate a stable population of SAR-expressing cells. It is to be noted that the drug resistance gene (e.g., PAC) in the SAR constructs is optional and in vivo studies were conducted with SAR constructs lacking the PAC gene.

Molecule | NFAT-GFP ASSAY: Raji-CD19-KO
B1 | 2+ (refer to approximately 5%, 10%, 20%, 30%, 40% and 50% GFP positive cells)
B2 | + (refer to approximately 5%, 10%, 20%, 30%, 40% and 50% GFP positive cells)
B3 | 4+ (refer to approximately 5%, 10%, 20%, 30%, 40% and 50% GFP positive cells)

Source: patent US20230212319A1, “NOVEL ANTIGEN BINDING DOMAINS AND SYNTHETIC ANTIGEN RECEPTORS INCORPORATING THE SAME” (University of Southern California, priority 2020, published 2023)
